Patent publication US20050123936A1, “Method, composition, and kit to design, evaluate, and/or test compounds that modulate regulatory factor binding to nucleic acids” (priority 2003, published 2005)
Entries after “also recorded” stand apart in the source; their conditions may differ. Ends that are not written are not given here.

What was measured:
[1] = biological target: T1, Exd (Drosophila melanogaster, UniProt P40427); test: Example 7 EMSA: recruitment of Exd by linker compounds; type: binding; conditions: for ability to recruit Exd: 4° C.; for positioning of the test compound with respect to its hydrophobic docking site on the surface of Exd: short linkers (<4 Å when fully extended)
T1 construct: comprising the homeodomain and the extended fourth helix (residues 238-324); made in house
T1 sequence (P40427 238-324): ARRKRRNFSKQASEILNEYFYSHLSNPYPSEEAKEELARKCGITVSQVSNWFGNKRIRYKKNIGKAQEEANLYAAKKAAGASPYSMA
Method: The assays were performed with 50 nM of the conjugate pre-incubated with target DNA (thus to bind the anchor moiety to the target nucleic acid) followed by the addition and incubation with Exd.
To determine the effects of longer linker on binding, the ability of compounds using linkers 1, 2 and 4 to recruit Exd at three different temperatures was investigated.

[2] = biological target: T2, extradenticle (Exd) protein (residues 238-324) (Drosophila melanogaster, UniProt P40427); test: EMSA: recruitment of Exd to its cognate DNA site by polyamides 1-3; type: binding; conditions: saturating 50 nM compound; Exd 0-100 nM; listed as compound 3
T2 construct: comprising the homeodomain and the extended fourth helix (residues 238-324); made in house
T2 sequence (P40427 238-324): T1 sequence (P40427 238-324)
Description: Protein expression: Drosophila extradenticle (Exd) protein comprising the homeodomain and the extended fourth helix (residues 238-324), as well as ultrabithorax (Ubx) protein homeodomain (residues 233-313 of the Ubx isoform IVa) were expressed and purified after Passner & Aggarwal. The purified proteins Exd and Ubx were used for EMSA studies as described below.
For the templates, the DNA oligonucleotides depicted in FIGS. 2a, 2b, 2c, and 2d were used, SEQ. ID NOS: 5, 6, 7, and 8, respectively. The DNA upper strand was annealed with the respective matching lower strand and both strands were 5′-labeled with γ-^32P-ATP and polynucleotide kinase, using standard procedures.
Gel-shift experiments: The master mix contained 50% BSA/50% glycerol, reaction buffer (150 mM potassium glutamate, 50 mM HEPES pH 7.0, 1 mM DTT, and 5′-end labeled DNA (^32P) The final concentrations in the samples were 100 ng/μL BSA and 10% glycerol. Polyamides were kept in subdued lighting whenever possible. Upon addition of the polyamide to 1 pM DNA, the samples were incubated at 25 °C. for 30 minutes in a 20 μL reaction. Next, Exd was added to the samples and incubated for 1 hour at 4° C. A 9% acrylamide/3% glycerol gel was pre-run for 15 min prior to loading. In each lane 15 μL of a 20 μL reaction were loaded while the gel was running to prevent the samples from being diluted. The gels were run at 4° C./185 V. Gels were dried, exposed to a phosphorimager screen, and visualized using a Molecular Dynamics phosphorimager.
FIGS. 3a and 3b: EMSA studies with polyamides 1-3, Exd and Ubx. In FIG. 3a, each polyamide binds and decreases the mobility of free DNA (lanes 2-18). […] In lanes 2-6,8-12, 14-18, Exd was added in following concentrations: 0, 3, 10, 30, 100 nM. Lanes 19 and 20 contained DNA bearing the Exd-Ubx binding site that was used in X-ray crystal structure determination (see methods above for sequence). In the reaction shown in lane 20, 275 nM Ubx and 30 nM Exd were incubated with DNA. […]

[3] = tested on: AGCTCA mismatch site on 250-bp EcoRI/PvuII restriction fragment from plasmid pDEH9; test: Quantitative DNase I footprint titration, mismatch site AGCTCA; type: binding
Method: (§1) Quantitative DNaseI footprinting can be used to determine the equilibrium association constants for binding to match and mismatch sites. Footprinting experiments are generally performed on 3′- and/or 5′-^32P end restriction fragments derived from plasmids. 3′-shifted cleavage patterns are consistent with location of the polyamide in the minor groove. Typical reaction conditions are: 10 mM Tris-HCl, 10 mM KCl, 10 mM MgCl2, 5 mM CaCl2, pH 7.0, and 22° C. See Brenowitz et al. (1986). Methods Enzymol. 130:132-181; Fox & Waring (1984) Nucleic Acids Res. 12:9271-9285; and Brenowitz et al. (1986) Proc. Natl. Acad. Sci. U.S.A. 83: 8462-8466.
(§2) DNase I Footprinting: Dissociation constants for the DNA binding of compounds 1, 2 and 3 were obtained following published protocols. All reactions were carried out in 400 μL total volume employing 20 kcpm of a 3′-radiolabelled 250-bp restriction fragment from the plasmid pDEH9 (FIG. 1a) (SEQ. ID. NO: 4). No carrier DNA was used in the equilibration, and the solutions were allowed to equilibrate for 12 h at 22° C. in TKMC buffer (10 mM TRIS, 10 mM KCl, […], 5 mM CaCl2 pH 7.0) prior to the DNase I digestion. Reaction products (8 kcpm) were resolved on denaturing 8% polyacrylamide sequencing gels run at 55 W.
(§3) FIGS. 1b, 1c, and 1d are quantitative DNAse I footprint titration experiments for compounds 1, 2 and 3 on the 3′^−32 P-labeled 250-bp EcoRI/PvuII restriction fragment from the plasmid pDEH9. Lane 1: Intact DNA. Lane 2: A-reaction. Lane 3: G-reaction. Lane 4: DNAse 1 standard.
(§4) The DNA-binding properties of the compounds 1-3 were investigated by quantitative DNase 1 footprinting assays. The equilibrium binding constants of each of the compounds for a matched versus three single base pair mismatch sites is compiled in Table 1. The lower strand sequence is shown in the header. Mismatched base pairs are underlined. The residue under the YPWM peptide is in bold. Relative specificities are given in square brackets.

[4] = tested on: TGGGCA mismatch site on 250-bp EcoRI/PvuII restriction fragment from plasmid pDEH9; test: Quantitative DNase I footprint titration, mismatch site TGGGCA; type: binding
Method: as §1, §2, §3, §4

[5] = tested on: TGGCCA mismatch site on 250-bp EcoRI/PvuII restriction fragment from plasmid pDEH9; test: Quantitative DNase I footprint titration, mismatch site TGGCCA; type: binding
Method: as §1, §2, §3, §4

[6] = biological target: TGGTCA matched site on 250-bp EcoRI/PvuII restriction fragment from plasmid pDEH9; test: Quantitative DNase I footprint titration, matched site; type: binding; conditions: 12 h at 22° C., TKMC buffer pH 7.0, read-out: Equilibrium Dissociation Constants Kd, TGGTCA
Method: as §1
DNase I Footprinting: Dissociation constants for the DNA binding of compounds 1, 2 and 3 were obtained following published protocols. All reactions were carried out in 400 μL total volume employing 20 kcpm of a 3′-radiolabelled 250-bp restriction fragment from the plasmid pDEH9 (FIG. 1a) (SEQ. ID. NO: 4). […]
FIGS. 1b, 1c, and 1d are quantitative DNAse I footprint titration experiments for compounds 1, 2 and 3 on the 3′^−32 P-labeled 250-bp EcoRI/PvuII restriction fragment from the plasmid pDEH9. […]
The DNA-binding properties of the compounds 1-3 were investigated by quantitative DNase 1 footprinting assays. […]

[7] = biological target: T3, Extradenticle (Exd), homeodomain plus extended fourth helix (Drosophila) (UniProt P40427); test: EMSA; conditions: apparent, with polyamide-FYPWM conjugate
T3 sequence: T1 sequence (P40427 238-324)

[8] = biological target: T4, Drosophila extradenticle (Exd) protein comprising the homeodomain and the extended fourth helix (residues … (Drosophila, UniProt P40427 238-324)); test: EMSA, Exd on DNA with and without compound 2
T4 sequence (looked up): T1 sequence (P40427 238-324)
Method: (§5) The gels were run at 4° C./185 V. Gels were dried, exposed to a phosphorimager screen, and visualized using a Molecular Dynamics phosphorimager.
(§6) A 47-base-pair duplex DNA with one cognate site was incubated with saturating concentrations (50 nM) of each compound.

[9] = biological target: T4, Drosophila extradenticle (Exd) protein …; test: EMSA, recruitment of Exd to its cognate DNA site by DNA-bound compound 2 compared with Ubx
Method: (§7) Upon addition of the polyamide to 1 pM DNA, the samples were incubated at 25 °C. for 30 minutes in a 20 μL reaction. […] A 9% acrylamide/3% glycerol gel was pre-run for 15 min prior to loading. In each lane 15 μL of a 20 μL reaction were loaded while the gel was running to prevent the samples from being diluted. The gels were run at 4° C./185 V. Gels were dried, exposed to a phosphorimager screen, and visualized using a Molecular Dynamics phosphorimager.
as §6

[10] = biological target: T4, Drosophila extradenticle (Exd) protein …; test: EMSA, Exd titrated on the DNA/compound 2 binary complex (ternary complex), 4 °C; Exd (residues 238-324) on the DNA/compound 2 complex, EMSA
Method: as §5, §6

[11] = biological target: T4, Drosophila extradenticle (Exd) protein …; test: EMSA, compared with Exd on the Ubx-DNA complex
Method: as §7, §6

[12] = biological target: T4, Drosophila extradenticle (Exd) protein …; test: EMSA, conjugate pre-incubated with target DNA, then Exd
[13] = biological target: T4, Drosophila extradenticle (Exd) protein …; test: EMSA (gel shift), 32P-labelled duplex DNA pre-bound with 50 nM compound 3, Exd titrated, 4 °C
Method: as §7, §6

[14] = relative to matched site TGGTCA

## Linker 2: Example 7 polyamide-FYPWM conjugate with linker 2, 10-atom linker, ~11 Å (FYPWMK; also: conjugated to polyamide via linker 2)
[1]
  ability to recruit Exd: recruit Exd effectively

## Linker 1: Example 7 polyamide-FYPWM conjugate with linker 1, defined 28-atom polyethylene glycol linker, ~33 Å (FYPWMK; also: conjugated to polyamide via linker 1)
[1]
  ability to recruit Exd: recruit Exd effectively
[1]; higher temperatures (23° C., 37° C.)
  binding affinity (Exd recruitment): dramatically reduced binding affinity

## Linker 8: Example 7 polyamide-FYPWM conjugate with linker 8, lysine linker, ~2.5 Å (FYPWMK; also: conjugated to polyamide via linker 8)
[1]
  positioning of the test compound with respect to its hydrophobic docking site on the surface of Exd: do not optimally position the test compound

## Linker 6: Example 7 polyamide-FYPWM conjugate with linker 6, no lysine residue (not fully specified (C-terminus); also: joined via linker 7 (no lysine) to hairpin polyamide)
[1]; absence of the lysine residue
  ability to recruit Exd in comparison to the compound using linker 5: did not appreciably alter

## Linker 4: Example 7 polyamide-FYPWM conjugate with linker 4, 7-atom linker, ~7 Å (FYPWMK; also: conjugated to polyamide via linker 4)
[1]
  ability to recruit Exd: recruit Exd effectively

## Linker 7: Example 7 polyamide-FYPWM conjugate with linker 7, no lysine residue (also: conjugated to polyamide via linker 7)
[1]
  positioning of the test compound with respect to its hydrophobic docking site on the surface of Exd: do not optimally position the test compound

## Cmpd 3 (FYPAAKG)
[1]; 50 nM conjugate pre-incubated with target DNA, data not shown
  ability to stabilize Exd binding to the adjacent cognate DNA site (TGAT): Neither the parent polyamide lacking the YPWM hook, nor the polyamide bearing an altered hook (FYPAAK) (SEQ. ID. NO: 14) was able to stabilize Exd binding
[2]
  ability to recruit Exd to its cognate DNA site (Exd binding): No binding was observed; also recorded: Neither compound 3 nor 1 showed any ability to recruit Exd
[3]; [14]
  Relative specificity (square brackets), AGCTCA: 16
[3]; single base pair mismatch site, 22° C., TKMC buffer, read-out: Equilibrium Dissociation Constants Kd, AGCTCA
  Kd: 14 ± 5 nM
[4]; [14]
  Relative specificity (square brackets), TGGGCA: 116
[4]; single base pair mismatch site, 22° C., TKMC buffer, read-out: Equilibrium Dissociation Constants Kd, TGGGCA
  Kd: ≥ 0.1 nM
[5]; [14]
  Relative specificity (square brackets), TGGCCA: 14
[5]; single base pair mismatch site, 22° C., TKMC buffer, read-out: Equilibrium Dissociation Constants Kd, TGGCCA
  Kd: 12 ± 5 nM
[6]
  Kd: 0.86 ± 0.32 nM

## 50 bp duplex with single optimal polyamide site and adjacent Exd site (Example 7)
[7]; linker 1 (PEG), 4 C, much reduced at higher temperature
  Kd: 0.6 nM
[7]; linker 4, 4 C, less than 5-fold decrease at 37 C
  Kd: 0.08 nM

B1: Compound 2: hairpin polyamide 1 conjugated to Ac-Phe-Tyr-Pro-Trp-Met-Lys-Gly- (peptide)
peptide: Ac-FYPWMKG
modifications: not fully specified (C-terminus); printed as Ac-Phe-Tyr-Pro-Trp-Met-Lys-Gly-; also: C-terminal Gly amide-bonded to propylamine side chain of polyamide 1
notes: Peptide-polyamide conjugate; The peptide carries the Hox YPWM motif; also called conjugate 2; polyamide 2
[8]
  fold improvement of the affinity of Exd for its cognate site against DNA alone: ≥ 200 fold
[9]
  fold lower concentration required to recruit Exd, against its natural Hox partner (Ubx): 20 fold
[10]
  Kd: 4.4 nM
[11]
  fold of Kd of Exd against that for the DNA-Ubx complex: 2 fold

## FYPAAK (also: conjugated to hairpin polyamide, linker not given here) [polyamide bearing an altered hook (FYPAAK)]
[12]
  binding result: no binding (tested: 50 nM conjugate)

B2: Compound 3: hairpin polyamide 1 conjugated to Ac-Phe-Tyr-Pro-Ala-Ala-Lys-Gly- (peptide)
peptide: Ac-FYPAAKG
modifications: not fully specified (C-terminus); printed as Ac-Phe-Tyr-Pro-Ala-Ala-Lys-Gly-; also: C-terminal Gly amide-bonded to propylamine side chain of polyamide 1
notes: Non-functional (Trp-Met to Ala-Ala) control conjugate; also called conjugate 3; polyamide 3
[13]
  binding result: no binding (tested: 100 nM)
